This is an account of results in patent US8722052B2, “Vaccinia virus protein A46 peptide and use thereof” (priority 2008, dated 2014).

Data set [1] concerns PBMCs. Put plainly: MTT cell viability assay, PBMC. It is filed as cell-based, human. To be noted: peptide 1, 5 and 25 μM. On the procedure: FIGS. 13A and B are bar charts showing the effect of A467 and A464 on LPS-induced TNFα production and on cell viability in primary human cells. Peripheral blood mononuclear cells (PBMCs) were seeded in 96 well plates (1 ×10^6 cells/ml) 24 hours before treatment. A467 (SEQ ID NO. 23) and A464 (SEQ ID NO. 20) were added to the cells at 1, 5 and 25 μM 1 hour before stimulating with 10 ng/ml LPS. The peptides were added into the unstimulated control wells at 25 μM. Supernatants were collected 6 hours after stimulation and assayed for TNFα production by ELISA (A). The cells were assayed for viability by the MTT assay (B). No peptides were added to the control wells (black bars). Data is representative of at least three experiments each performed in triplicate and is expressed as mean±s.d;
Cell viability was measured by assessing mitochondrial function using an MTT (3-(4,5-Dimethylthiazol-2-yl)-2,5-diphenyltetrazolium bromide) assay. Cells were seeded into 96 well plates and treated with peptides and agonists as described above in relation to the Figs. Wells containing medium only served as a blank control. To terminate treatment of cells, medium was removed and the cells were washed once with PBS. […] MTT was then removed and 200 μl per well of dimethyl sulphoxide (DMSO) was added and cells incubated for 20 min at 37° C. in the dark, prior to absorbance being read at 595 nm on a spectrophotometer.

Data set [2] concerns JNK. Put plainly: LPS-induced phospho-JNK in RAW264.7 cells, immunoblot. The class given is cell-based, murine. The note with it: peptide 5 μM, 10 ng/ml LPS 5-60 min. On the procedure:
FIGS. 27A, B and C are immunoblots showing the effect of A464 on LPS-induced appearance of phospho-JNK in murine RAW264.7 cells. Cells were set up as for FIG. 25 above and 5 μM A467 (SEQ ID NO. 23) or A464 (SEQ ID NO. 20) were added to the wells 1 hour before stimulation. Cells were stimulated with 10 ng/ml LPS for a period of 5, 15, 30 or 60 min, then harvested and lysed. Proteins were resolved by SDS-PAGE, and transferred membranes immunoblotted for phospho-JNK (A), total JNK (B) or β-actin (C). The blots shown are representative of two experiments;
RAW264.7 cells were seeded at a density of 1×10^5 cells/ml in 6 well plates. […] The protein concentration was determined by monitoring the change in the solution absorbance at 280 nm using a spectrophotometer compared to protein standards. […] Thereafter, the membranes were washed, incubated in appropriate secondary antibody and then developed using standard enhanced chemi-luminescence (ECL) reagents.
Next, the effect of A464 (SEQ ID No. 20) on MAPK activation was measured by assaying the phosphorylation of p38 and JNK by Western blot. […] As before the protein concentration in the samples was determined by Bradford assay and the accuracy of the loading was confirmed by re-probing the blot for β-actin. […]
A general note: In western blotting, separated proteins are transferred to a membrane and probed.

In data set [3] the test system is p38 MAPK. Put plainly: LPS-induced phospho-p38 MAPK in RAW264.7 cells, immunoblot. The class given is cell-based, murine. To be noted: peptide 5 μM, 10 ng/ml LPS 5, 30 or 60 min. On the procedure: FIGS. 28A and B are immunoblots showing the effect of A464 on LPS-induced appearance of phospho-p38 MAPK in murine RAW264.7. Cells were set up as for FIG. 24 above and 5 μM A467 (SEQ ID NO. 23) or A464 (SEQ ID NO. 20) were added to the wells 1 hour before stimulation. Cells were stimulated with 10 ng/ml LPS for a period of 5, 30 or 60 min, then harvested and lysed. Proteins were resolved by SDS-PAGE, and transferred membranes immunoblotted for phospho-p38 (A) or total p38 (B). The blots shown are representative of two experiments;
RAW264.7 cells were seeded at a density of 1×10^5 cells/ml in 6 well plates. After treatment with peptides and agonists, as described above in relation to the Figs, the medium was removed and the cells were washed once with PBS before scraping them in 100 μl lysis buffer (100 mM NaCl, 50 mM HEPES (pH 7.5), 1 mM EDTA, 0.5% NP-40, 10% Glycerol) and incubating them on ice for 40 min. Samples were spun at 15,000×g for 10min and supernatants collected and stored at −20° C. […] The protein concentration was determined by monitoring the change in the solution absorbance at 280 nm using a spectrophotometer compared to protein standards. […] Thereafter, the membranes were washed, incubated in appropriate secondary antibody and then developed using standard enhanced chemi-luminescence (ECL) reagents. […]

In data set [4] the test system is cell viability. Put plainly: MTT cell viability assay, more detailed investigation of screening hits. To be noted: cell type not stated. It is filed as cell-based. On the procedure: Cell viability was measured by assessing mitochondrial function using an MTT (3-(4,5-Dimethylthiazol-2-yl)-2,5-diphenyltetrazolium bromide) assay. Cells were seeded into 96 well plates and treated with peptides and agonists as described above in relation to the Figs. Wells containing medium only served as a blank control. To terminate treatment of cells, medium was removed and the cells were washed once with PBS. 200 μl per well of 1 mg/ml MTT in PBS was added directly to the cells and the plates were incubated at 37° C. for 14-16 hrs in the dark. MTT was then removed and 200 μl per well of dimethyl sulphoxide (DMSO) was added and cells incubated for 20 min at 37° C. in the dark, prior to absorbance being read at 595 nm on a spectrophotometer.

As for KYSFKLILAEYRRRRRRRRR [Peptide A464], the “toxicity (MTT)” value in data set [1] is reported as “not toxic”. Moreover, in data set [2], the “effect on LPS-induced phosphorylation of JNK” value is reported as “completely inhibited phosphorylation of JNK at all times of the LPS stimulation”. Also, in data set [3], the “inhibition of LPS-induced p38 phosphorylation” value is on record as “very potent inhibition of LPS-induced p38 phosphorylation at all the time points”. The “cell viability (MTT assay)” value in data set [4] is recorded as “less toxic”.
